Here are results for one protein from publication doi:10.1101/2025.08.13.669967, “Cryo-EM protein structure without purification” (bioRxiv, 2025).

This series concerns the molecule itself. As to the kind of experiment: native gel or EMSA; Native PAGE of the 25 µl PURE cell-free expression reaction with FluoroTect GreenLys fluorescent detection, compared to a no plasmid DNA control.

B1: Arabidopsis thaliana Pyridoxal 5'-phosphate synthase-like subunit PDX1.2 (natural protein, UniProt Q9ZNR6 1-314, looked up)
chain: MADQAMTDQDQGAVTLYSGTAITDAKKNHPFSVKVGLAQVLRGGAIVEVSSVNQAKLAESAGACSVIVSDPVRSRGGVRRMPDPVLIKEVKRAVSVPVMARARVGHFVEAQILESLAVDYIDESEIISVADDDHFINKHNFRSPFICGCRDTGEALRRIREGAAMIRIQGDLTATGNIAETVKNVRSLMGEVRVLNNMDDDEVFTFAKKISAPYDLVAQTKQMGRVPVVQFASGGITTPADAALMMQLGCDGVFVGSEVFDGPDPFKKLRSIVQAVQHYNDPHVLAEMSSGLENAMESLNVRGDRIQDFGQGSV
modifications: translation mixture supplemented with FluoroTect GreenLys reagent (fluorescent detection)
notes: Pyridoxal 5'-phosphate synthase-like subunit PDX1.2 of Arabidopsis thaliana, Uniprot Q9ZNR6; synthetic gene (Genscript) in the pT7-DHFR Control plasmid in place of DHFR (NdeI/NotI); source: PURE (PureExpress In Vitro Protein Synthesis kit, New England Biolabs) cell-free expression, 25 µl reaction; in crude lysate or after small-scale clean-up (spin filter, benzonase, reverse His-purification); …
Take B1: the “stoichiometry N” value is 12.
